Experiments:
1C8 = test: Carterra LSA SPR
1B11-2 = test: Carterra LSA SPR
1B6 = test: Carterra LSA SPR
1D7 = test: Carterra LSA SPR
1H7 = test: Carterra LSA SPR
1D8 = test: Carterra LSA SPR
1D9 = test: Carterra LSA SPR
1E1 = test: Carterra LSA SPR
1A2 = test: Carterra LSA SPR
MICA = biological target: T1, MICA (human, UniProt Q29983 24-383); test: Carterra LSA SPR
T1 chain: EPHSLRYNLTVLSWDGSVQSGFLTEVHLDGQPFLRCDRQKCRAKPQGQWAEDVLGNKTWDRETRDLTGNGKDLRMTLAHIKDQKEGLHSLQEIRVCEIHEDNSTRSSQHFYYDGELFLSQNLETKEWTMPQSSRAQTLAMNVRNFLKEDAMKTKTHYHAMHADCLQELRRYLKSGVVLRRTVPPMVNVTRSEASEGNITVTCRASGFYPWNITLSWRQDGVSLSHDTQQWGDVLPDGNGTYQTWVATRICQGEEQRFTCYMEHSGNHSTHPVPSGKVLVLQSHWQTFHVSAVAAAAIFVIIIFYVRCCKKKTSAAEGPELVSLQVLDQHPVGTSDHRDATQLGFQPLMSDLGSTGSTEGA

MICB = biological target: T2, MICB (human, UniProt Q29980 23-383); test: Carterra LSA SPR
T2 chain: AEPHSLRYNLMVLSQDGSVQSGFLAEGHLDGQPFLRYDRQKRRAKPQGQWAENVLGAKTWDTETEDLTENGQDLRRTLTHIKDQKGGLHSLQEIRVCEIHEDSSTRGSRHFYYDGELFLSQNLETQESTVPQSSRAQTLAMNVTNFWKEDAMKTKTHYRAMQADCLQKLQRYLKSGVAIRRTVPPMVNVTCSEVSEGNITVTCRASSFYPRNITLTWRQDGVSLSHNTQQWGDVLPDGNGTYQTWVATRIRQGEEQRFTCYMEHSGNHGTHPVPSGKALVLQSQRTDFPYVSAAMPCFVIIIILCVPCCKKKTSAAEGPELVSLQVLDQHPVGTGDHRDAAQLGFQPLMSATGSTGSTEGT

cynoMICA = test: Carterra LSA SPR
CD16 = CD16 (UniProt P08637 17-208)
CD16, sequence (P08637 17-208): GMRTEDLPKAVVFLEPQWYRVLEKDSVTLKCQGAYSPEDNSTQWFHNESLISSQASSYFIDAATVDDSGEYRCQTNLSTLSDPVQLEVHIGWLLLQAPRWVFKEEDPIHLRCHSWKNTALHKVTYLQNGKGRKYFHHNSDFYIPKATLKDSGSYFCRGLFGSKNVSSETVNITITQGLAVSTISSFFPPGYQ

B1: huMICB (ligand)
chain: AEPHSLRYNLMVLSQDGSVQSGFLAEGHLDGQPFLRYDRQKRRAKPQGQWAENVLGAKTWDTETEDLTENGQDLRRTLTHIKDQKGGLHSLQEIRVCEIHEDSSTRGSRHFYYDGELFLSQNLETQESTVPQSSRAQTLAMNVTNFWKEDAMKTKTHYRAMQADCLQKLQRYLKSGVAIRRTVPPMVNVTCSEVSEGNITVTCRASSFYPRNITLTWRQDGVSLSHNTQQWGDVLPDGNGTYQTWVATRIRQGEEQRFTCYMEHSGNHGTHPVPSGKALVLQSQRTDFPYVSAAMPCFVIIIILCVPCCKKKTSAAEGPELVSLQVLDQHPVGTGDHRDAAQLGFQPLMSATGSTGSTEGT
Kd (1C8): 7.72 nM | Kd (1B11-2): 1.11 nM | Kd (1B6): 1.05 nM | Kd (1D7): 1.47 nM | Kd (1H7): 254 nM | Kd (1D8): 4.5 nM | Kd (1D9): 0.453 nM | Kd (1E1): 2.23 nM | Kd (1A2): 0.181 nM

B2: D103388_1C7 [MICA/B]_H0_D103388_1C7 [MICA/B]_L0 (antibody, V domains shown)
VH: QVQLRQSGPGLGQPSQSLSITCTVFGFSLTNYGVHWVRQSPGKGLEWLGMIWNDGFTDFNAAFISRLSISKDNSKSQVFFKMNSLQPSDTAIYYCASPYFHYAMDYWGQGTSVTVSS
VL: QIVLTQSPAIMSASLGERVTMTCTASSSVSSSYLHWYQQKPGSSPKLWIYSTSNLASGVPARFSGSGSGTSYSLTISSMEAEDAATYYCHQYHRSPFTFGSGTKLEIK
Kd (MICA): 22.9 nM | Kd (MICB): 2.27 nM

B3: 1C7 (antibody, V domains shown)
VH: QVQLRQSGPGLGQPSQSLSITCTVFGFSLTNYGVHWVRQSPGKGLEWLGMIWNDGFTDFNAAFISRLSISKDNSKSQVFFKMNSLQPSDTAIYYCASPYFHYAMDYWGQGTSVTVSS
VL: QIVLTQSPAIMSASLGERVTMTCTASSSVSSSYLHWYQQKPGSSPKLWIYSTSNLASGVPARFSGSGSGTSYSLTISSMEAEDAATYYCHQYHRSPFTFGSGTKLEIK
Kd (cynoMICA): 23.8 nM

B4: XENP41023 (antibody)
heavy: EVQLLESGGGLVQPGGSLRLSCAVSGFSLSSYGVIWVRQAPGKGLEYVSWVSSGGSTNYASSVKGRFTISRDTSKNTVYLQMNSLRAEDTAVYFCARGATNSGTDIWGPGTLVTVSSASTKGPSVFPLAPSSKSTSGGTAALGCLVKDYFPEPVTVSWNSGALTSGVHTFPAVLQSSGLYSLSSVVTVPSSSLGTQTYICNVNHKPSDTKVDKKVEPKSCDKTHTCPPCPAPELLGGPDVFLFPPKPKDTLMISRTPEVTCVVVDVSHEDPEVKFNWYVDGVEVHNAKTKPREEEYNSTYRVVSVLTVLHQDWLNGKEYKCKVSNKALPAPIEKTISKAKGQPREPQVYTLPPSREEMTKNQVSLTCDVSGFYPSDIAVEWESDGQPENNYKTTPPVLDSDGSFFLYSKLTVDKSRWEQGDVFSCSVMHEALHNHYTQKSLSLSPGK
scFv-Fc: EVQLLESGGGLVQPGGSLRLSCAVSGFSLSSYGVIWVRQAPGKGLEYVSWVSSGGSTNYASSVKGRFTISRDTSKNTVYLQMNSLRAEDTAVYFCARGATNSGTDIWGPGTLVTVSSGKPGSGKPGSGKPGSGKPGSDIVMTQSPSSLSASVGDRVTITCRASQSINSWLSWYQQKPGKPPKLLIYGASNLASGVPSRFKGSGSGTDFTLTISSLQPEDFATYYCQNNYGIIAAGATFGGGTKVEIKEPKSSDKTHTCPPCPAPELLGGPDVFLFPPKPKDTLMISRTPEVTCVVVDVSHEDPEVKFNWYVDGVEVHNAKTKPREEQYNSTYRVVSVLTVLHQDWLNGKEYKCKVSNKALPAPIEKTISKAKGQPREPQVYTLPPSREQMTKNQVKLTCLVKGFYPSDIAVEWESNGQPENNYKTTPPVLDSDGSFFLYSKLTVDKSRWQQGNVFSCSVMHEALHNHYTQKSLSLSPGK
light: DIVMTQSPSSLSASVGDRVTITCRASQSINSWLSWYQQKPGKPPKLLIYGASNLASGVPSRFKGSGSGTDFTLTISSLQPEDFATYYCQNNYGIIAAGATFGGGTKVEIKRTVAAPSVFIFPPSDEQLKSGTASVVCLLNNFYPREAKVQWKVDNALQSGNSQESVTEQDSKDSTYSLSSTLTLSKADYEKHKVYACEVTHQGLSSPVTKSFNRGEC
Kd (CD16): 102 nM

B5: XENP41024 (antibody)
heavy: EVQLLESGGGLVQPGGSLRLSCAVSGFSLSSYGVIWVRQAPGKGLEYVSWVSSGGSTNYASSVKGRFTISRDTSKNTVYLQMNSLRAEDTAVYFCARGATNSGTDIWGPGTLVTVSSASTKGPSVFPLAPSSKSTSGGTAALGCLVKDYFPEPVTVSWNSGALTSGVHTFPAVLQSSGLYSLSSVVTVPSSSLGTQTYICNVNHKPSDTKVDKKVEPKSCDKTHTCPPCPAPELLGGPSVFLFPPKPKDTLMISRTPEVTCVVVDVSHEDPEVKFNWYVDGVEVHNAKTKPREEEYNSTYRVVSVLTVLHQDWLNGKEYKCKVSNKALPAPEEKTISKAKGQPREPQVYTLPPSREEMTKNQVSLTCDVSGFYPSDIAVEWESDGQPENNYKTTPPVLDSDGSFFLYSKLTVDKSRWEQGDVFSCSVMHEALHNHYTQKSLSLSPGK
scFv-Fc: EVQLLESGGGLVQPGGSLRLSCAVSGFSLSSYGVIWVRQAPGKGLEYVSWVSSGGSTNYASSVKGRFTISRDTSKNTVYLQMNSLRAEDTAVYFCARGATNSGTDIWGPGTLVTVSSGKPGSGKPGSGKPGSGKPGSDIVMTQSPSSLSASVGDRVTITCRASQSINSWLSWYQQKPGKPPKLLIYGASNLASGVPSRFKGSGSGTDFTLTISSLQPEDFATYYCQNNYGIIAAGATFGGGTKVEIKEPKSSDKTHTCPPCPAPELLGGPSVFLFPPKPKDTLMISRTPEVTCVVVDVSHEDPEVKFNWYVDGVEVHNAKTKPREEQYNSTYRVVSVLTVLHQDWLNGKEYKCKVSNKALPAPEEKTISKAKGQPREPQVYTLPPSREQMTKNQVKLTCLVKGFYPSDIAVEWESNGQPENNYKTTPPVLDSDGSFFLYSKLTVDKSRWQQGNVFSCSVMHEALHNHYTQKSLSLSPGK
light: DIVMTQSPSSLSASVGDRVTITCRASQSINSWLSWYQQKPGKPPKLLIYGASNLASGVPSRFKGSGSGTDFTLTISSLQPEDFATYYCQNNYGIIAAGATFGGGTKVEIKRTVAAPSVFIFPPSDEQLKSGTASVVCLLNNFYPREAKVQWKVDNALQSGNSQESVTEQDSKDSTYSLSSTLTLSKADYEKHKVYACEVTHQGLSSPVTKSFNRGEC
Kd (CD16): 120 nM

B6: D99136_2C11 [MICA/B]_H0_D99136_2C11 [MICA/B]_L0 (antibody, V domains shown)
VH: DVQLQESGPGLVKPSQSLSLTCSVTGYSITSGYNWDWIRHSPGNKLEWMGYISYDGSTNYNPSLKNRISITRDTSKNQFFLKLNSVTTEDTATYYCASSYYRYFDYWGQGTTLTVSS
VL: DVQMTQTTSSLSASLGDRVTISCSASQGISNYLNWFQQKPDGTVKLLIYYTSSLHSGVPSRFSGSGSGTDYSLTISNLEPEDIATYYCQQYTKLPWTFGGGTELEIK
Kd (MICA): 17.8 nM | Kd (MICB): 2.59 nM

B7: D94837_1E11_1 [MICA/B]_H0_D94837_1E11_1 [MICA/B]_L0 (antibody, V domains shown)
VH: EIQLQQSGPELVKPGASVKVSCKASGYAFTSYNMYWVKQSHGKSLEWIGYIDPYNGGTIYNQKFKGKATLTVDKSSSTAYMLLNSLTSEDSAVYYCARVGDAYPFAYWGQGTLVTVSA
VL: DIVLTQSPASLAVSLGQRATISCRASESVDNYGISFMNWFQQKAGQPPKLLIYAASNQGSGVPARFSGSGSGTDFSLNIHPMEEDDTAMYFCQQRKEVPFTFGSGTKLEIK
Kd (MICA): 40.3 nM | Kd (MICB): 52.8 nM

B8: 1E11-1 (antibody, V domains shown)
VH: EIQLQQSGPELVKPGASVKVSCKASGYAFTSYNMYWVKQSHGKSLEWIGYIDPYNGGTIYNQKFKGKATLTVDKSSSTAYMLLNSLTSEDSAVYYCARVGDAYPFAYWGQGTLVTVSA
VL: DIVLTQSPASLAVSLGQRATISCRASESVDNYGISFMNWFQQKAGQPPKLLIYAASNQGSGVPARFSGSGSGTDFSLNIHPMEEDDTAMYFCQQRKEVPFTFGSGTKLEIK
Kd (cynoMICA): 19.6 nM

B9: 2F7 (antibody, V domains shown)
VH: QVHLKQSGAELVRPGASVKLSCKASGYTFTDYYIDWMNQRPGQGLEWIARIYPGSGNSYYNEKFKGKATLTAEKSASTAHMQLSSLTSEDSAVYFCAREGPTGVAPHWYFDVWGTGTTVTVSS
VL: DIVMSQSPSSLSSYLGDRVTISCRASQDIGNYLNWYQQKPDGTVKLLIYSTSRLHSGVPSRFSGSGSGTDYSLTISNLEQEDVATYFCQQGNTLPWTFGGGTKLEIK
Kd (MICA): 42.4 nM | Kd (MICB): 9.77 nM

B10: 2E12 (antibody, V domains shown)
VH: QVQLQQSGAELVRPGTSVKVSCKASGYAFTNYLIEWVKQRPGQGLEWIGGINPGSGSTNYNEKFKGKATLTADKSSSTAYMQLSTLTFDDSAVYFCARLGGNYVDYWGQGTTLTVSS
VL: DIQMTQSPASLSASVGETVTITCRASGNIHNYLAWYQQKQGKSPQLLVYNAKTLADGVPSRFSGSGSGTQYSLKINSLQPEDFGSYYCQHFWSTPRTFGGGTKLEIK
Kd (MICA): 16.7 nM | Kd (MICB): 4.68 nM

B11: 2E5 (antibody, V domains shown)
VH: EVKLVESGGGLVQPGGSLKLSCATSGFTFSDYYMFWVRQTPEKRLEWVAYISEGGGSTYYPDTIKGRFTISRDNAKNTLYLQMSRLRSEDTAMYYCVRQRGAYNRYDDGRGFAYWGQGTLVTVSA
VL: DVLMTQTPLSLPVSLGDQASISCRSSQSIVHSNGNTYLEWYLQKPGQSPKLLIYKVSNRFSGVPDRLSGSGSGTDFTLKISRGEAEDLGVYYCFQGSHVPWTFGGGTKLEIK
Kd (MICA): 0.599 nM | Kd (MICB): 0.807 nM

Source: US20250243279A1 (published 2025)
